Measured values taken from US20200277366A1 (UCB, published 2020).

Tests used:
murine TNF-alpha = target: T1, murine TNF-alpha (mouse, UniProt P06804 80-235); assay: L929 cell killing assay with murine TNF-α (N=3); told in words
T1 construct: also called mouse TNF; Murine TNF-α
T1 sequence (looked up): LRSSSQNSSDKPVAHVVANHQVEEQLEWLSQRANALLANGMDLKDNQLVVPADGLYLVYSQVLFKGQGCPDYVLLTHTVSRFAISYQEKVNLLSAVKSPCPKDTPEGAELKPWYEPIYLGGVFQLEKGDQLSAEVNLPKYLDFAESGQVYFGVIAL

human IL-17F = target: T2, human IL-17F (human, UniProt Q96PD4 31-163); assay: SPR (Biacore T200), TrYbe 18B captured by anti-human F(ab')2, human IL-17F titrated 10 nM to 0.3125 nM
T2 sequence (looked up): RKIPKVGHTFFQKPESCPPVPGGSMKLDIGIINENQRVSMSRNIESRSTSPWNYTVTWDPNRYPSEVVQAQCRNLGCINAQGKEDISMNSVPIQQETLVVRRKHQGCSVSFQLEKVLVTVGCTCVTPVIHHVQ
Method: (§1) BIA (Biamolecular Interaction Analysis) was performed using a Biacore T200 (GE Healthcare). Affinipure F(ab′)2 Fragment goat anti-human IgG, F(ab′)2 fragment specific (Jackson ImmunoResearch) was immobilised on a CM5 Sensor Chip via amine coupling chemistry to a capture level of ˜5000 response units (RUs). HBS-EP buffer (10 mM HEPES pH 7.4, 0.15 M NaCl, 3 mM EDTA, 0.05% Surfactant P20, GE Healthcare) was used as the running buffer with a flow rate of 10 μL/min. […] The surface was regenerated by 2×10 μL injection of 50 mM HCl, interspersed by a 5 μL injection of 5 mM NaOH at a flowrate of 10 μL/min. Background subtraction binding curves were analysed using the T200evaluation software (version 1.0) following standard procedures. Kinetic parameters were determined from the fitting algorithm.

cynomolgus IL-17F [1] = target: T3, cynomolgus IL-17F (cynomolgus, UniProt G7P4V0 31-163); assay: SPR (Biacore T200), TrYbe 18B captured by anti-human F(ab')2, cynomolgus IL-17F titrated 40 nM to 1.25 nM
T3 construct: also called cyno IL-17F
T3 sequence: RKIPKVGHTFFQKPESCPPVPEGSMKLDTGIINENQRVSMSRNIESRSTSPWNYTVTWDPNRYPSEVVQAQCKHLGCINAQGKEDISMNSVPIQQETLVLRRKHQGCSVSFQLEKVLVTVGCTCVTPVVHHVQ
Method: as §1, with “of […]. Background subtraction” for “of 10 μL/min. Background subtraction”

cynomolgus serum albumin [2] = target: T4, cynomolgus serum albumin (cynomolgus, UniProt A2V9Z4 25-608); assay: SPR (Biacore T200), TrYbe 18B captured by anti-human F(ab')2, cynomolgus albumin titrated 100 nM to 3.125 nM
T4 construct: also called Cynomolgus Albumin; CSA
Method: as §1, with “of […]. Background subtraction” for “of 10 μL/min. Background subtraction”

cynomolgus TNF-alpha [3] = target: T5, cynomolgus TNF-alpha (cynomolgus, UniProt P79337 77-233); assay: SPR (Biacore T200), TrYbe 18B captured by anti-human F(ab')2, cynomolgus TNF titrated 5 nM to 0.15625 nM
T5 construct: also called cyno TNF; cTNF
Method: as §1, with “of […]. Background subtraction” for “of 10 μL/min. Background subtraction”

cynomolgus serum albumin [4] = target: T4, cynomolgus serum albumin; assay: SPR (Biacore T200), TrYbe 18B captured; column head prints KD(nM), but the KD(M) column shows the value is in pM
Method: as §1, with “of […]. Background subtraction” for “of 10 μL/min. Background subtraction”

cynomolgus TNF-alpha [5] = target: T5, cynomolgus TNF-alpha; assay: as above
Method: as §1, with “of […]. Background subtraction” for “of 10 μL/min. Background subtraction”

cynomolgus IL-17F [6] = target: T3, cynomolgus IL-17F; assay: as above
Method: as §1, with “of […]. Background subtraction” for “of 10 μL/min. Background subtraction”

cynomolgus IL-17A [7] = target: T6, cynomolgus IL-17A (cynomolgus, UniProt A0A2K5TTB0 24-155); assay: SPR (Biacore T200), TrYbe 18B captured; column head prints KD(nM), but the KD(M) column shows the value is in pM; kd at the instrument's limit
T6 construct: also called cIL-17A; cynoIL-17A
Method: as §1, with “of […]. Background subtraction” for “of 10 μL/min. Background subtraction”

human serum albumin = target: T7, human serum albumin (human, UniProt P02768 25-609); assay: SPR (Biacore T200), TrYbe 18B captured by anti-human F(ab')2, HSA titrated 100 nM to 3.125 nM
T7 construct: also called HSA; Human Albumin
Method: as §1

human IL-17A [8] = target: T8, human IL-17A (human, UniProt Q16552 24-155); assay: SPR (Biacore T200), TrYbe 18B captured by anti-human F(ab')2, human IL-17A titrated 5 nM to 0.15625 nM; footnote: dissociation limited due to limit of the instrument
T8 construct: also called hIL-17A
Method: as §1

human TNF-alpha [9] = target: T9, human TNF-alpha (human, UniProt P01375 77-233); assay: cell-based or functional assay
cynomolgus TNF-alpha [10] = target: T5, cynomolgus TNF-alpha; assay: cell-based or functional assay
cynomolgus IL-17A [11] = target: T6, cynomolgus IL-17A; assay: SPR (Biacore T200), TrYbe 18B captured by anti-human F(ab')2, cynomolgus IL-17A titrated 10 nM to 0.3125 nM; footnote: dissociation limited due to limit of the instrument
Method: as §1, with “of […]. Background subtraction” for “of 10 μL/min. Background subtraction”

human TNF-alpha [12] = target: T9, human TNF-alpha; assay: SPR (Biacore T200), TrYbe 18B captured by anti-human F(ab')2, human TNF titrated 5 nM to 0.15625 nM
Method: as §1

cynomolgus IL-17A [13] = target: T6, cynomolgus IL-17A; assay: SPR (Biacore T200), TrYbe 18B captured by anti-human F(ab')2, cynomolgus IL-17A titrated 10 nM to 0.3125 nM; kd at the instrument's limit
Method: as §1, with “of […]. Background subtraction” for “of 10 μL/min. Background subtraction”

human IL-17A [14] = target: T8, human IL-17A; assay: SPR (Biacore T200), TrYbe 18B captured by anti-human F(ab')2, human IL-17A titrated 5 nM to 0.15625 nM; kd at the instrument's limit
Method: as §1

human IL-17A [15] = target: T8, human IL-17A; assay: SPR (Biacore T200), TrYbe 18B captured by anti-human F(ab')2, human IL-17A titrated 5 nM to 0.15625 nM
Method: as §1

cynomolgus IL-17A [16] = target: T6, cynomolgus IL-17A; assay: SPR (Biacore T200), TrYbe 18B captured by anti-human F(ab')2, cynomolgus IL-17A titrated 10 nM to 0.3125 nM
Method: as §1, with “of […]. Background subtraction” for “of 10 μL/min. Background subtraction”

B1: Fab496.g3-(HC)dsscFv(HL)2109 / Fab496.g3-(LC)dsscFv(HL)645 (TrYbe 18B) (other)
heavy: EVQLVESGGGLVQPGGSLRLSCAASGFTFSDYNMAWVRQAPGKGLEWVATITYEGRNTYYRDSVKGRFTISRDNAKNSLYLQMNSLRAEDTAVYYCASPPQYYEGSIYRLWFAHWGQGTLVTVSSASTKGPSVFPLAPSSKSTSGGTAALGCLVKDYFPEPVTVSWNSGALTSGVHTFPAVLQSSGLYSLSSVVTVPSSSLGTQTYICNVNHKPSNTKVDKKVEPKSCSGGGGSGGGGSEVQLVESGGGLVKPGGSLRLSCAASGYTFTDNYIHWVRQAPGKCLEWIGYINPSSAYAHYNEKFKTRFTISVDKAKNSAYLQMNSLRAEDTAVYYCTRRYYSAMPFAYWGQGTLVTVSSGGGGSGGGGSGGGGSGGGGSDIQMTQSPSSLSASVGDRVTITCRASEDIYSGLAWYQQKPGKVPKLLIYDSSTLHTGVPSRFSGTGSGTDYTLTISSLQPEDVATYFCQQNYDFPLTFGCGTKLEIKRT
light: AIQLTQSPSSLSASVGDRVTITCRADESVRTLMHWYQQKPGKAPKLLIYLVSNSEIGVPDRFSGSGSGTDFRLTISSLQPEDFATYYCQQTWSDPWTFGQGTKVEIKRTVAAPSVFIFPPSDEQLKSGTASVVCLLNNFYPREAKVQWKVDNALQSGNSQESVTEQDSKDSTYSLSSTLTLSKADYEKHKVYACEVTHQGLSSPVTKSFNRGECSGGGGSGGGGSEVQLLESGGGLVQPGGSLRLSCAVSGIDLSNYAINWVRQAPGKCLEWIGIIWASGTTFYATWAKGRFTISRDNSKNTVYLQMNSLRAEDTAVYYCARTVPGYSTAPYFDLWGQGTLVTVSSGGGGSGGGGSGGGGSGGGGSDIQMTQSPSSVSASVGDRVTITCQSSPSVWSNFLSWYQQKPGKAPKLLIYEASKLTSGVPSRFSGSGSGTDFTLTISSLQPEDFATYYCGGGYSSISDTTFGCGTKVEIKRT
notes: Tri-specific Fab-2xdsscFv (TrYbe) with no Fc; Stably expressed in CHO; also called Fab496.g3-(HC)dsHLscFv2109 (LC)dsHLscFv645
Q: Does B1 bind (murine TNF-alpha)?
A: no binding

Q: And the Kd (human IL-17F)?
A: 7.51 pM

Q: What about the koff (human IL-17F) of the same binder?
A: 3.8e-05 s⁻¹

Q: And the kon (human IL-17F)?
A: 5.06e+06 M⁻¹ s⁻¹

Q: And the Kd (cynomolgus IL-17F [1])?
A: 288 pM

Q: What about the koff (cynomolgus IL-17F [1]) of the same binder?
A: 0.000167 s⁻¹

Q: What about the kon (cynomolgus IL-17F [1]) of the same binder?
A: 582000 M⁻¹ s⁻¹

Q: And the Kd (cynomolgus serum albumin [2])?
A: 2720 pM

Q: What about the koff (cynomolgus serum albumin [2]) of the same binder?
A: 0.000159 s⁻¹

Q: What about the kon (cynomolgus serum albumin [2]) of the same binder?
A: 58300 M⁻¹ s⁻¹

Q: And the Kd (cynomolgus TNF-alpha [3])?
A: 7.16 pM

Q: And the koff (cynomolgus TNF-alpha [3])?
A: 6.38e-05 s⁻¹

Q: What about the kon (cynomolgus TNF-alpha [3]) of the same binder?
A: 8.9e+06 M⁻¹ s⁻¹

Q: What about the Kd (cynomolgus serum albumin [4]) of the same binder?
A: 2720 pM

Q: What about the Kd (cynomolgus TNF-alpha [5]) of the same binder?
A: 7.16 pM

Q: What about the Kd (cynomolgus IL-17F [6]) of the same binder?
A: 288 pM

Q: And the Kd (cynomolgus IL-17A [7])?
A: 5.99 pM

Q: What about the Kd (human serum albumin) of the same binder?
A: 1740 pM

Q: What about the koff (human serum albumin) of the same binder?
A: 0.000135 s⁻¹

Q: What about the kon (human serum albumin) of the same binder?
A: 77500 M⁻¹ s⁻¹

Q: And the koff (human IL-17A [8])?
A: ≤ 1e-05 s⁻¹

Q: What about the “Mean EC50, L929 cell survival (CellTiter-Glo) with Actinomycin D and human TNF-α” value (human TNF-alpha [9]) of the same binder?
A: 5.87 pM

Q: What about the “Mean EC50, L929 cell survival (CellTiter-Glo) with Actinomycin D and cynomolgus TNF-α” value (cynomolgus TNF-alpha [10]) of the same binder?
A: 4.97 pM

Q: And the koff (cynomolgus IL-17A [11])?
A: ≤ 1e-05 s⁻¹

Q: And the Kd (human TNF-alpha [12])?
A: 11.6 pM

Q: What about the koff (human TNF-alpha [12]) of the same binder?
A: 6.43e-05 s⁻¹

Q: What about the kon (human TNF-alpha [12]) of the same binder?
A: 5.54e+06 M⁻¹ s⁻¹

Q: What about the Kd (cynomolgus IL-17A [13]) of the same binder?
A: ≤ 5.99 pM

Q: And the Kd (human IL-17A [14])?
A: ≤ 1.81 pM

Q: What about the kon (human IL-17A [15]) of the same binder?
A: 5.52e+06 M⁻¹ s⁻¹

Q: What about the kon (cynomolgus IL-17A [16]) of the same binder?
A: 1.67e+06 M⁻¹ s⁻¹
